From publication PMC7801428 (Nature Communications, 2021)

Target: SARS-CoV-2 RBD (residues V320 to G550, strain Wuhan-Hu-1), C-terminal His tag (SARS-CoV-2, UniProt P0DTC2)
Assay: BLI
Conditions: both partners purified

B1: human-mouse chimeric antibody 3C1 (c3C1) (antibody, V domains shown)
VH: EVQLQESGPSLVKPSQTLSLTCSVTGDSITNGYWNWIRKFPGNKLEYMGYISYSGSTYYSPSLKSRISITRDTSKNQHYLQLNSVTSEDTATYYCASDYHGSKYYFDYWGQGTTLTVSS
VL: DIVMTQSHKFMSTSVGHRVSITCKASQDVGNDVAWYQQKPGQSPKLLIYWASTRHTGVPDRFTGSGSGTDFTLTISNVQSEDLADYFCQQYNRYPYTFGGGTKLEIK
notes: also called chimeric MAb c3C1
  Kd: < 1 pM
